The target in assay [1] is Survivin-GB1Borealin f.l. complex (human, UniProt O15392;Q53HL2). The experiment in a line: ITC. On the technique in general: In ITC the heat of successive injections is recorded.
A further assay addresses Survivin, non-tagged (human, UniProt O15392 1-142). Kind of assay: SEC. (In gel filtration, larger molecules generally elute earlier.)

Chain of Survivin-GB1Borealin f.l. complex (O15392 whole entry, chain 1 of 2): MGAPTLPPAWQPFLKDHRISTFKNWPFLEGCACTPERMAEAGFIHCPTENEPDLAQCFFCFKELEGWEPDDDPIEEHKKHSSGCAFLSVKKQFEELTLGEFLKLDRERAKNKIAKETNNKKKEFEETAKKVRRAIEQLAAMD
Chain of Survivin-GB1Borealin f.l. complex (Q53HL2 whole entry, chain 2 of 2): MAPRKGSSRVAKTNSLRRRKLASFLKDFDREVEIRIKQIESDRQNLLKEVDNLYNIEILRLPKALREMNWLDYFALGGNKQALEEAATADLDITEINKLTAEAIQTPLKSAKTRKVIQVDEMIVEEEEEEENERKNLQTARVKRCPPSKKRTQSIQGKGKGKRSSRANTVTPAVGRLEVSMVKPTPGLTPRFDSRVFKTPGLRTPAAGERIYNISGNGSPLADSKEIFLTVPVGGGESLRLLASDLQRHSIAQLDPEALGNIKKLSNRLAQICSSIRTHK
Chain of Survivin, non-tagged (O15392 whole entry): as the sequence (O15392 whole entry, chain 1 of 2) above

B1: INCENP 1-69, His6-tagged (domain or fragment)
chain: MGTTAPGPIHLLELCDQKLMEFLCNMDNKDLVWLEEIQEEAERMFTREFSKEPELMPKTPSQKNRRKKR
As for B1, in assay [1], the Kd (as a rule, a measure of binding affinity in units of concentration) was 27 nM and the stoichiometry N – broadly, the number of molecules, sites or subunits per partner or assembly – was roughly 0.75.

B2: GB1Borealin 13-92 (domain or fragment)
chain: TNSLRRRKLASFLKDFDREVEIRIKQIESDRQNLLKEVDNLYNIEILRLPKALREMNWLDYFALGGNKQALEEAATADLD
For B2, the binding result in the assay with Survivin, non-tagged is given as “binds”.

The record behind these values is article PMC2746994 (Biochemistry, 2009).
